assay: yeast display, Sf9 membrane polyspecificity reagent, FACS + sequencing; frameworks hold sequencing errors
Summary of the method: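 Synthetic nanobody libraries on Saccharomyces cerevisiae BJ5465 were galactose-induced for 36–48 hours, stained 1 hour at 4 °C with 10% biotinylated, detergent-solubilized Sf9 membrane reagent and enriched on streptavidin microbeads. FACS then separated cells into low and high (top ~1%) gates by anti-HA (expression) and streptavidin (reagent binding) fluorescence. Genes were colony-PCR amplified, MiSeq 2 × 250 sequenced and CDR-length filtered. A clone's polyreactivity label is that of its gate of origin.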

Sequence | polyreactivity (PSR sort gate)
QVQLVESGGGLVQAGGSLRLSCAASGIFYFYAMGWYRQAPGKERELVAAITSSGGNTTYADSVKGRFTISRDNAKNTVYLQMNSLKPEDTAVYYCNADYFQDRLDYWGQGTQVTVSS | low polyreactivity
QVQLVESGGGLVQAGGSLRISCAASGIIFKQNVMGWYRQAPGKERELVAAITSRDGSTYYADSVKGRFTISRDNAKNTVYLQMNSLKPEDTAVYYCAANWRSPRYYLYGYWGQGTQVTVSS | high polyreactivity
QVQLVESGGGLVQAGGSLRLSCAASVSIFTAYPRGWYRQAPGKERELVAAISNGGSTYYADSVKGRFTISRDNAKNTVYLQMNSLKQEDTAVYYCAADSVQFQPDDEYWGQGTQVTVSS | low polyreactivity
QVQLVESGGGLVQAGGSLRLSCAASGRTFYYYAMGWYRQAPGKERELVAAISSRGGSTYYADSVKGRFTISRDNAKNTVYLQMNSLKPEDTAVYYCAAERYFVLYRYYSYAYYYWGQGTQVTVSS | high polyreactivity
QVQLVESGGGLVQAGGSLRLSCAASGIIFHGYAMGWYRQAPGKERDLVAAITASDGDTYYADSVKGRFTISRDNAKNTVYLQMNSMKPEDTAVYYCAADFWYYHTRMDYWGQGTQVTVSS | low polyreactivity
QVQLVESGGGLDQAGGSLRLSCADSGSIFVYYAMGWYRQAPGKERELVAAITTSGGSTYYADSVKGRFTISRDNAKNTVYLQMNSLKPEDTAVYYCAAELLAWYWSYSVPWPYDYWGQGTQVTVSS | low polyreactivity
QVQLVESGGGLVQAGGSLRLSCAASGYTFNYYAMGWYRQAPGKERELVAAIRSTGSTNYADSVKGRFTISRDNAKNTVYLQMKSLKPEDTAVYYCAAKIRKDYSIQGYDYWGQGSQVTVSS | high polyreactivity
QVQLVESGGGLVQAGGSLRLSCAASGSIFYRYAMGWNRPAPGKERELVAAISRSGGTTYYADSVKGRFTISRDNAKNTVYLQMYCLKPEDTAVYYCAALVFHAYSTDPYFYWGQGTQVTVSS | high polyreactivity
QVQLVESGGGLVQAGGSLRLSCAASGITFPLYAMGWYRQAPGKETELVASITRGGTTNYADSVKGRFTISRDNAKNTVYLQMNRLKPEDTAVYYCAAEVTRDRGFDYWGQGTQVTVSS | low polyreactivity
QDQLVESGGGLVQAGGSLRLRCAASGSILWYYAMGWYRQAPGKERELVASISYSGGSTYYADSVKGRFTISRDNAKNTVYLQMNSLKPEDTAVYYCNADTITYQGYDYGYWGQGTQVTVSS | low polyreactivity
QVQLVESGGGLVQAGGSLRLSCAASGSTFLTNAMGWYRQAPGKERELVAAIRWRGGDTRYADSVKGRFTISRDNAKNTVYLQMNSLKPEDTAVYYCAAQYRKTQYQKKYDYWGQGTQVTVSS | high polyreactivity
QVQLVESGGGLVQEGGSLRLSCAASGRIIERSAMGWYRQAPGKERELVAGISISGGGTYYADSVKGRFTISRDKAKNTVYLLMNCLKPEDTSVYYCAGTFPREEYGYWGQGTQVTVSW | low polyreactivity
QVQLVESGGGLVQAGGSLRLSCAASGSIFVGYDMGWYRQAPGKERDLVASINGGDSTNYADSVKGRFTISRDNAKYTVYLQMNSLKPEDTAVYYCAKDVTYTDEYDYWGQGTQVTVSS | low polyreactivity
QVQLVESGVGLVQAGGSLRLICAASGFIFFGNAMGWYRQAPGKERQLVAVITWSGGSTYADSVKGRFTISRDNAKNTVYLQMNSLKPEDTAVYYCAADQQTWWQYSLINEYDYWGQGTQVTVSS | low polyreactivity
QVQLVESGGGLVQAGGSLRLSCAASGSIFSYNALGWYRQAPGKEREFVAAISARGGSTYYADSVKGRFTISRDNAKNTVYLLMNSLKPEDTAVYYCAASWGLGTYSDSTYWGGYYYWGQGTQVTVSS | low polyreactivity
QVQLVESGGGLFQAGGSLRLSCAASGSIINIYAMGWYRQAPGKERELVATITGIADSTYYADSVKGRFTISRDNAKNTVYLQMNSLKPEDTAVYYCAADKYVADYDYWGQGSQVTVSS | low polyreactivity
QVQLVESGAGLVQAGGSLRLSCAPSGFTFSWYVMGWYRQAPGKERELVAAITSSGGRTYYADSVKGRFTISRDNAKNTVYLQMNSLKPEDTAVYYCAARFKRGLGDSWGQGTQVTVSS | high polyreactivity
QVQLVESGGGLVQAGGSLRLSCAASGFIFQPYAMGWYRQAPGKERELVAAINFSGGSTYYADSVKGRFTISRDNAKNTVYLQMNSLKPEDTAVYYCARAGRYAAYSPFYYWGQGTQVTVSS | high polyreactivity
QVQLVESGGGLVQAGGSLRLSCAASGITFYRYAMGWYRQEPGKERELVAAISRSGGSTYYADSVKGRFTISRDNAKNTVYLQMNSLKPQDTEVYYCADYILGNRVGYDYWGQGTQVTVSS | high polyreactivity
QVQLVESGGGLVQAGGSLRLSCAASGNTFDYYAMGWYRQAPGKERELVAAITRGGSTNYADSVKGRFTISRDNAKNTVYLQMNSLKPEDTAGYYCAAEQRAPRFADYDYWGQGTQVTVSS | low polyreactivity
QVQLVESGGGLVQAGGSLRLSCAASGSIYHPYALGWYRQAPGKERELVAAISKSGGNTYYADSVKGRFTISRDNAKNTVYLQMNCLKPEDTAVYYCAALDYWGQGTQVTVSS | low polyreactivity

Sequence | polyreactivity (PSR sort gate)
QVQLAESGGGLVQAGGSLRLICAASGFTFSAYAMGWYRQAPGKERELVAAINTSGGSTYYADSVKGRFTISRDNAKNTVYLQMKSLKPEDTAVYYCASKYASLDRRRRKYDYWGQGTQVTVSS | high polyreactivity
QVQLVESGGGLVQAGGSLRLSCAAYGSNLTWNDMGWYRQAPGKERELVAAIDVNDGSTYYADSVKGRFTISRDNAKNTVYLQMNRLKPEDTAVYYCAEPTDYTWLDSTLADDYWGQGTQVTVSS | low polyreactivity
QVQLVESGAGLVQAGGSLRLSCAASGRIFYWNAMGWYTQAPGKEREFVAAISWSGGSTYADSVKGRFTISRDNAKNTVYLQMNSLKPEDTAVYYCATRVSRSFRAYDYWGQGTQVTVSS | high polyreactivity
QVQLQERGGGLVQAGGSLRLSCAASGNIFEADIMGWYHQAQGKDRELVASITDGGSTNYADSVKGRFTINRDNAKNKVSRQMNSLKPEDTALYYCAAYGNARLKEHYYWGQGTQVTVSS | high polyreactivity
QVQLVESGGGLVQAGGSLRLSCAASGSIFGYNAMGWYRQAPGKERELVAAIRRSGSSTYYADSVKGRFTISRDNAKNTVYLQMNSLKPEDTAVYYCNRVPRPVADQEYDYWGQGTQVTVSS | low polyreactivity
QVQLVESGGGLVQAGGSLRLSCAPSGFTFLKNAMGWYRQAPGKERELVAAITGSGGSTYYADSVKGRFTISRDTEKNTVYLQMYSLKPEDTAVYYCNVRRGLRDYEYWGQGTQVTVSS | high polyreactivity
QVQLVESGGGLVQAGGSLRLSCAASGFTFRYYAMGWYRQAPGKEWELVARITWNGGRTYYADSVKGRFTISRDNAKNTLYLQMNSLKPEDTAVYYCAARGFYRSYYWGQGTQVTVSS | high polyreactivity
QVQLVESGGGLVQAGGSLRLSCAASGRIFYSYAMGWYRQAPGKESELVAAIRSTGSTNYADSVKGRFTISRDNAKNTVYLQMNSLKPEDTAVYYCAARTSYRSSLFGYWGQGTQVTVSS | high polyreactivity
QVQLVESGGGLVQAGGSLRLSCAASGFTFYRYVMGWYRKAPGKETELDAAISRRGGSTYYADSVKGRFTISRDNAKNTVYLQMNSLKPEDTAVYYCAADVISRYYVQYIGYYELHYDYWGQGTQVTVSS | high polyreactivity
QVQLVESGGGLVQAGGSLRLSCAASGITIYRYAMGWYRQAPGKERELVATITWSGGSTYYADSVKGRFTISRDNAKNTVYLQMNSLKPEDTALYYCAAYSPYIYQAYRYDYWGQGTQVTVSS | low polyreactivity
QVELVESGGGLVQAGGSLRLSCAASGFTFHSNVMGWYRQAPGKERELVAAISNGGGSTYYADSVKGRFTISRDNAKNTVYLQMNSLKPEDTAVYYCDKRTYPGFGYWGQGTQVTVSS | high polyreactivity
QVQLVESGGGLVQAGGSLRLSCAASGSTFDGYAMGWYRQAPGKERELVAAITSSSTSTYYADSVKGRFTISRDNAKNTVYLQMNSLKPEDTAVYYCAAQYFSYISVYSFYTMGYWGQGTQVTVSS | low polyreactivity
QVQLVESGGGLVQAGGSLRLSCAASGFIFNWYAMGWYRQAPGKERELVAVITSSGGSTYYADSVKGRFTISRDNAKNTVYLQMNSLKPDDTAVYYCNKKPGPAPNKYRITARYYYWGQGTQVTVSS | high polyreactivity
QVQLVESGGGLVQAGGSLRLSCAASGFTFISNAMGWYRQAPGKERELVAAISSSGGRTYYADSVKGRFTSSRDNAKNTVYLQMNSLKPEDTAVYYCNADRSLLYSRKIEYDYWGQGTQVSVSS | low polyreactivity
QVQLVESGGGLVQAGGSLRLSCAASGFNTRLYAMGWYRQAPGKEREFVAAISWDGTRTYYADSVKGRFTISRDTANKTFYLQMNSLKPEDTAVSYCNARRRQWQARYDYWGQGTQITVSS | high polyreactivity
QVQLVESGGRIVQAGGSLRLSCAASGRLFDRYAMGWYRQAPGQERELVAAISWSAGSTYYADSVKGRFTISRDNAKNTVYLQMNSLKPEDTAVYYCAVPARGTFLLRDGGRAEFDYWGQGTQVTVSS | low polyreactivity
QVQLVESGGGLVQAGGSLRLSCAASGSTFYDYVMGWYRQAPGKERELVAAITGSGGRTYYADSVKGRFTISRDNAKNTVYLQMNSLKPEDTAVYYCAVRVHYNRVYGRYSPRYDYWGQGTQVTVSS | high polyreactivity
QVQLVESGGGLVQAGGSLRLSCAASGRIFGVNAMGWYRQAPGKERELVAAITSGGSTNYADSVKGRFTISRDNAKNTVYLQMNSLKPEDTAVYYCAAVNYYWGQGTQVTVSS | low polyreactivity
QVQLVESGGGLVQAGGSLRLSCAASGRIIGHYAMGWYRQAPGKERDLVAAISRGGSTYYADSVKGRFTISRDNAKNTVYLQKTSLKPEDTAVYYCAVRSGRRNYDRPAFGYWGQGTQVTVSS | high polyreactivity
QVQLHESGGGLVQAGGSLRLSCAASGTISYAGPMGWYRQAPGKEREFVAGIGVGSNTNYADRVKGRYTIIRDNAKNTEYLQRNSLKPEDTALYYCAVGGYAPLGRPYWGQGTQVTVSS | low polyreactivity
